In US20100184658A1 (published 2010):

Assays:
Experiment in all cases: cell-based or functional assay
[1] = target: PASK (UniProt Q96RG2 879-1323, limits assumed)
[2] = target: T1, NEK9 NIMA (never in mitosis gene a)-related kinase 9 (UniProt Q8TD19 1-979, limits assumed)
T1 sequence (looked up): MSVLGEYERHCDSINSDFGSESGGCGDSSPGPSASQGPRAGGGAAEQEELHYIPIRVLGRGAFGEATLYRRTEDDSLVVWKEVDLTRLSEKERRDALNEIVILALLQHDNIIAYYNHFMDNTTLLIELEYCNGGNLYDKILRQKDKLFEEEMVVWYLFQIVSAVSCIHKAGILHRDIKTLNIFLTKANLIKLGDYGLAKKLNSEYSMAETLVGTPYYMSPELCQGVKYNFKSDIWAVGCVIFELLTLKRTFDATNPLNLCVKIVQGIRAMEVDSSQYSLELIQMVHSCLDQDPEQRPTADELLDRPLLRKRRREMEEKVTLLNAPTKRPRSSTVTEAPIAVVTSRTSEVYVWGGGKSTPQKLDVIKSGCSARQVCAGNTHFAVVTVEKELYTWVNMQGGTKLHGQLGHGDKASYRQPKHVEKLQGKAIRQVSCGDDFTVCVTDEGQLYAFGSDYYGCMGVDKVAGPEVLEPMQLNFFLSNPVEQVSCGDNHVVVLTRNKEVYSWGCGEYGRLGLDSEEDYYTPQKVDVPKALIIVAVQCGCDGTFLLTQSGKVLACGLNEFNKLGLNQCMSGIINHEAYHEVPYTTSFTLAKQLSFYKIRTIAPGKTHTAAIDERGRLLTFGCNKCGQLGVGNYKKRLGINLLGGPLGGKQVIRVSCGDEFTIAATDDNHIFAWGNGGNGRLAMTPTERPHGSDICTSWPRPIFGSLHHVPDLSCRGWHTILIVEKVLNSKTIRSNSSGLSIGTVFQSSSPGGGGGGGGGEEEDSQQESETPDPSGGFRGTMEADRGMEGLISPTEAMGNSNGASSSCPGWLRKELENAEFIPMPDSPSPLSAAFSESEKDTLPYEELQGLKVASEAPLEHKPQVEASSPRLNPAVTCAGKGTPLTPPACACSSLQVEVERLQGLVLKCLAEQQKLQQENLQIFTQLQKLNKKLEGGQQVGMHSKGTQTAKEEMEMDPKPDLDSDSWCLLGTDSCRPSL

[3] = target: CSK (UniProt P41240 1-450, limits assumed)
Sequence of CSK (P41240 whole entry): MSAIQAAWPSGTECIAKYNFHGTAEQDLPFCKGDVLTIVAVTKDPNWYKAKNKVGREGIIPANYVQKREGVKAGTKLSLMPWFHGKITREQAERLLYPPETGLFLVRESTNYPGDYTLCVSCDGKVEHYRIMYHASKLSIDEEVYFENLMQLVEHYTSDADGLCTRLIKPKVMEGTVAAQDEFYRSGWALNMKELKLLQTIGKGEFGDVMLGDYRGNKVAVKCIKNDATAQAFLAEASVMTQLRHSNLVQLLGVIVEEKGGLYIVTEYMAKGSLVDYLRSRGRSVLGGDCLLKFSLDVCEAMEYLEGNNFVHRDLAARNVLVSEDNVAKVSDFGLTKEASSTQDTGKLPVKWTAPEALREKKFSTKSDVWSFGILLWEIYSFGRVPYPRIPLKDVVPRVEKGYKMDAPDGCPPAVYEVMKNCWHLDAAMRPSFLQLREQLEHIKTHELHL

[4] = target: T2, TYK2 (UniProt P29597 871-1187, limits assumed)
T2 sequence (looked up): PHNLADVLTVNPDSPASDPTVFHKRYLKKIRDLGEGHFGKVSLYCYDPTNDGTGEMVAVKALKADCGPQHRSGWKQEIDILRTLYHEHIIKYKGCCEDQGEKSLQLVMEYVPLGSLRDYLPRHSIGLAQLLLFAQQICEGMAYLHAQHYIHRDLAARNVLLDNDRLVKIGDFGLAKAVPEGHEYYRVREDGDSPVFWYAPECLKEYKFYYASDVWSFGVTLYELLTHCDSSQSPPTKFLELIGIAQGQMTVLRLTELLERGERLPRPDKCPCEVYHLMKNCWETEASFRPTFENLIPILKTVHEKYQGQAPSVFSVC

[5] = target: T3, SGKL (SGK3) Serum/glucocorticoid regulated kinase family, member 3 (UniProt Q96BR1 1-496, limits assumed)
T3 sequence (looked up): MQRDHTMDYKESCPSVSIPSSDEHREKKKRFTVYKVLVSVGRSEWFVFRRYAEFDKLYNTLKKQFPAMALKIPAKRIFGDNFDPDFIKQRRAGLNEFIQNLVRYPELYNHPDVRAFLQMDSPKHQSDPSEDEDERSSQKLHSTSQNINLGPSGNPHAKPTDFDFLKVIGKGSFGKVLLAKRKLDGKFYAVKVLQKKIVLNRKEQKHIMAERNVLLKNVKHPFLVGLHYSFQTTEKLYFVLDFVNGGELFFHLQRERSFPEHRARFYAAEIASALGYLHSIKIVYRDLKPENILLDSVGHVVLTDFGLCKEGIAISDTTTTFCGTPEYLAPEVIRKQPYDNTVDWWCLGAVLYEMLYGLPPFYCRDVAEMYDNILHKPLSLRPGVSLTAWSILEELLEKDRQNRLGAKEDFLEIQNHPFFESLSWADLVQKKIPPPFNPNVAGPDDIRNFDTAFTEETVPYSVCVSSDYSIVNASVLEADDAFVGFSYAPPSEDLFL

[6] = target: CAMK2B (CaMKII beta) (UniProt Q13554 1-666, limits assumed)
Sequence of CAMK2B (CaMKII beta) (Q13554 whole entry): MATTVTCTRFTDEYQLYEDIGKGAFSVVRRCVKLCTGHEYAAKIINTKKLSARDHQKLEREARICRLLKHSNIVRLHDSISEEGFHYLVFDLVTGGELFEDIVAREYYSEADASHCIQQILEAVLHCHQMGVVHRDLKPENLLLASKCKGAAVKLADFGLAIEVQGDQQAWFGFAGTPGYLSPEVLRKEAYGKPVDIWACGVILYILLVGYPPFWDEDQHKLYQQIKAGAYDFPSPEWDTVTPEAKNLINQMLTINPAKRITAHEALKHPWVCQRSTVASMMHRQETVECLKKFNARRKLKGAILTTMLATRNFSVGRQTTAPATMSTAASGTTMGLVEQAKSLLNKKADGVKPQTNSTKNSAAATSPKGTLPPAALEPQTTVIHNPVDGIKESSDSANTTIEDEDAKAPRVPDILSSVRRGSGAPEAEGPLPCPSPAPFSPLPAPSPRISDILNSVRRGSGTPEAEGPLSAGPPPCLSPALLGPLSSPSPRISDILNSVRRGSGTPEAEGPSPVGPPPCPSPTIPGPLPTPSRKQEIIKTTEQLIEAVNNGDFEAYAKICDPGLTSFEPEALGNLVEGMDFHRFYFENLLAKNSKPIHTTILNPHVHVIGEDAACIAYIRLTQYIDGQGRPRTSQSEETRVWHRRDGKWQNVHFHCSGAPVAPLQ

[7] = target: MYLK2 (skMLCK) (UniProt Q9H1R3 1-596, limits assumed)
Sequence of MYLK2 (skMLCK) (Q9H1R3 whole entry): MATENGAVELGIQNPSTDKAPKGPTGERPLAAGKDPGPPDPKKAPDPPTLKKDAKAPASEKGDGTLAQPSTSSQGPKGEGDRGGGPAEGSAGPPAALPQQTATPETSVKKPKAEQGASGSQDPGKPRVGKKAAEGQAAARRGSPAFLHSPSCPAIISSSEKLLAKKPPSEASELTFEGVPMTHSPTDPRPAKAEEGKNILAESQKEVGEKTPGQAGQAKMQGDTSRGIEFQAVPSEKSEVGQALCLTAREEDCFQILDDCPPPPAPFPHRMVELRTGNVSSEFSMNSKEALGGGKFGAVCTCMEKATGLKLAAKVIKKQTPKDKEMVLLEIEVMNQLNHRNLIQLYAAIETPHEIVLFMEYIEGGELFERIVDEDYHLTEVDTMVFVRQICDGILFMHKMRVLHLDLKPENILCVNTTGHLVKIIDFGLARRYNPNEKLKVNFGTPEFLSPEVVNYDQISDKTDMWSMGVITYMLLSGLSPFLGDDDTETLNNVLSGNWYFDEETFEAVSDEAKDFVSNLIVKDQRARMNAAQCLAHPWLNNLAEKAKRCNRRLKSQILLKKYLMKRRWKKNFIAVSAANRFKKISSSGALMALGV

[8] = target: GRK5 (UniProt P34947 1-590, limits assumed)
Sequence of GRK5 (P34947 whole entry): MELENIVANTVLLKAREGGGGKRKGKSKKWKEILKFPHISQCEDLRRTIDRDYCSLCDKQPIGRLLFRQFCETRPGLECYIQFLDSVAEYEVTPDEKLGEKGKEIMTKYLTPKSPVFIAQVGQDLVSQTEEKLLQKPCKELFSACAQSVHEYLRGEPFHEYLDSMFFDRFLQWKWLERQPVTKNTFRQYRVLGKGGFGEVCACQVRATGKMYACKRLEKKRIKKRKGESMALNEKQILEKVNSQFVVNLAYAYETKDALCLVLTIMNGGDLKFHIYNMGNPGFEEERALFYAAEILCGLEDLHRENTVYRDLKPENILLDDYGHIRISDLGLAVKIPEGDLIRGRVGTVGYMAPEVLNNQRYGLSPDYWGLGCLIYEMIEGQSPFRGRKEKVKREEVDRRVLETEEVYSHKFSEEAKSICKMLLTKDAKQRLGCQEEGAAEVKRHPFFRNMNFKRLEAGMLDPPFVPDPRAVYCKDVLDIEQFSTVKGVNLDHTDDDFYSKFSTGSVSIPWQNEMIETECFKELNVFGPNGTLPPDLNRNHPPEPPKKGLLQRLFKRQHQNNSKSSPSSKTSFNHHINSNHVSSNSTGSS

[9] = target: T4, STK4 (MST1) Serine/threonine kinase 4 (UniProt Q13043 1-487, limits assumed)
T4 sequence (looked up): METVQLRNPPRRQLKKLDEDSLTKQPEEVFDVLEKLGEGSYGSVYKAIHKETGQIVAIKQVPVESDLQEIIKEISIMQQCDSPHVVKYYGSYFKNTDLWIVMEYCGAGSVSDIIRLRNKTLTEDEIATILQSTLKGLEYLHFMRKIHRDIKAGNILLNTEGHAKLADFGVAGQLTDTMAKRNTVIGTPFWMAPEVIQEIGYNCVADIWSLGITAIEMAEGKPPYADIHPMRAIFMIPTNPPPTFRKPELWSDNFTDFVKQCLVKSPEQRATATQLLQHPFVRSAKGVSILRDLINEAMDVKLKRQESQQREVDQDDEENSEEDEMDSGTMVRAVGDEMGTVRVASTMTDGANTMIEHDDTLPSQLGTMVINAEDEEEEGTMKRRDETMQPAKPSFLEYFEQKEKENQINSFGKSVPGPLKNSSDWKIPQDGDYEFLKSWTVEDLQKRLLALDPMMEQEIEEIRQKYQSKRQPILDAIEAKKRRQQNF
Also: test concentration or dose not given here.

Sequence of PASK (Q96RG2 879-1323 limits assumed): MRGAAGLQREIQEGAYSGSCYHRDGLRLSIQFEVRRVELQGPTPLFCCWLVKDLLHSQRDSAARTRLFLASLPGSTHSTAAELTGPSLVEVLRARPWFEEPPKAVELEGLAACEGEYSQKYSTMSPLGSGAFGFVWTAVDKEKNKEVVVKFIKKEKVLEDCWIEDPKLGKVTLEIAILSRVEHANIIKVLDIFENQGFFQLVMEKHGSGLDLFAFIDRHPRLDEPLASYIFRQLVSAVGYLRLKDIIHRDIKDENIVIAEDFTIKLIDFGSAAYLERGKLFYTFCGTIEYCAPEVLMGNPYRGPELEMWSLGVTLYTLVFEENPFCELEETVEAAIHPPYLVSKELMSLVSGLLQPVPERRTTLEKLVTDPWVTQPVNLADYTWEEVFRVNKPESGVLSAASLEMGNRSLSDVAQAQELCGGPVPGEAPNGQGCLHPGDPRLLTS

B1: D3 peptide (peptide)
peptide: SGRPPMIVWFNRPFLIAVSHTHGQTILFMAKVINPVGA
% Inhibition mean [1]: 80.8%
% Inhibition mean [2]: 108%
% Inhibition mean [3]: 55.2%
% Inhibition mean [4]: 70.5%
% Inhibition mean [5]: 97%
% Inhibition mean [6]: 90.3%
% Inhibition mean [7]: 64.6%
% Inhibition mean [8]: 50.8%
% Inhibition mean [9]: 99%
